Target: T1, Granzyme B (Homo sapiens, UniProt P10144)
T1 construct: purchased Calbiochem 368042
Test: in vitro protease assay (decomposition by Granzyme B)
Format: biochemical
Conditions: Granzyme B 0.05 μg, substrate protein 0.2 μg, 37° C. for 2 hours, SDS-PAGE, Coomassie Brilliant Blue
Experimental: An in vitro protease assay was carried out to confirm in an experiment whether or not Golgin-160 is decomposed by Granzyme B. Granzyme B, Human, cell culture-derived (Calbiochem, Catalog No. 368042) was purchased, and this product was used as Granzyme B. Granzyme B (0.05 μg) was added to 10 μl of a cleavage buffer containing TRX-Golgin-160, procaspase-3, or TRX-LAG 3 (0.2 μg each) (wherein the buffer consisted of 50 mM Hepes-KOH (pH 7.4), 2 mM EDTA, 1% NP-40, 0.1 M NaCl, and 10 mM DTT) (Kam C. M., Huding D., et al., “Granzymes (lymphocyte serine proteases): characterization with natural and synthetic substrates and inhibitors” in Biochim. Biophys. Acta, 1477:307-323 (2000)). The obtained mixture was incubated at 37° C. for 2 hours. After completion of the incubation, 2×SDS sample buffer (125 mM Tris-HCl (pH 6.8), 4% (w/v) sodium dodecyl sulfate, 20% (v/v) glycerol, 0.01% (w/v) bromophenol blue, and 20% (v/v) 2-mercaptoethanol) was added at an equivalent amount to each reaction solution, and the obtained mixture was heated for 5 minutes. Thereafter, the obtained reaction mixture was separated by SDS-PAGE and then stained with Coomassie Brilliant Blue. Thus, a protein and a decomposition product thereof were observed.

T1 sequence (P10144 21-247): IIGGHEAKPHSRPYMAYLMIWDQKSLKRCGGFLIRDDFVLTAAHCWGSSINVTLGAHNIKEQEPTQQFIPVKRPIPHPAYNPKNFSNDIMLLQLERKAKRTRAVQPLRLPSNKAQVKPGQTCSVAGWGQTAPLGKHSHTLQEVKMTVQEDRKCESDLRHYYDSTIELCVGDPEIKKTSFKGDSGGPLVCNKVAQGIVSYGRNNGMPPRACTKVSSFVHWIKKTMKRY

B1: Procaspase-3: Recombinant Human procaspase-3 (MBL/BioVision), positive control in the in vitro protease assay of Granzyme B (protein, UniProt P42574 1-277, looked up)
pro-form: MENTENSVDSKSIKNLEPKIIHGSESMDSGISLDNSYKMDYPEMGLCIIINNKNFHKSTGMTSRSGTDVDAANLRETFRNLKYEVRNKNDLTREEIVELMRDVSKEDHSKRSSFVCVLLSHGEEGIIFGTNGPVDLKKITNFFRGDRCRSLTGKPKLFIIQACRGTELDCGIETDSGVDDDMACHKIPVEADFLYAYSTAPGYYSWRNSKDGSWFIQSLCAMLKQYADKLEFMHILTRVNRKVATEFESFSFDATFHAKKQIPCIVSMLTKELYFYH
modifications: pro-form
notes: Recombinant Human procaspase-3 (MBL/BioVision), positive control in the in vitro protease assay of Granzyme B
B1 was tested, and the “decomposition by Granzyme B” value was “decomposed”.

— US20070116694A1, “Inhibitor of interaction of granzyme b with golgin-160” (Daiichi Pharmaceutical Co., Ltd., priority 2003, published 2007)
